Reference: US20130164256A1 (AbbVie / Abbott, published 2013)
Residue numbers refer to the chain shown, from its start.

B1: AE11-5 AM4 (antibody, V domains shown)
VH: EVQLVQSGAEVKKPGSSVKVSCKASGGTFSWYAISWVRQAPGQGLEWMGGITPILGSPIYAQKFQGRVTITADESTSTVYMELSSLRSEDTAVYYCARGVYYDPKRADYWGQGTLVTVSS
VL: EIVLTQSPDFQSVTPKEKVTITCRASQRIGSSLHWYQQKPDQSPKLLIKHASQSVSGVPSRFSGSGSGTDFTLTINSLEAEDAATYYCHQSRSSPPPTFGQGTKVEIK
notes: Full length IgG converted from scFv clone J703M1S3#30; Human IgG1 (hCg1,z,non-a,mut(234,235)) with human kappa; also called J703M1S3#30
B2: AE11-5 AM2 (antibody, V domains shown)
VH: B1 VH with S57A, P58A, I59N
VL: EIVLTQSPDFQSVTPKEKVTITCRASQSIGSTLHWYQQKPDQSPKLLIKHASQSNSGVPSRFSGSGSGTDFTLTINSLEAEDAATYYCHQSSSLPPPTFGQGTKVEI
notes: Full length IgG converted from scFv clone J703M1S3#13; Human IgG1 (hCg1,z,non-a,mut(234,235)) with human kappa; also called J703M1S3#13
B3: AE11-5 AM6 (antibody, V domains shown)
VH: B1 VH with P58A, I59T, V100I
VL: B1 VL with R28T, V55I, S91T, R92S, S94L, P96T
notes: Full length IgG converted from scFv clone J703M1S3#35; Human IgG1 (hCg1,z,non-a,mut(234,235)) with human kappa; also called J703M1S3#35
B4: AE11-5 AM10 (antibody, V domains shown)
VH: B1 VH with P104Y
VL: B1 VL with R28S, S32N, V55I, S91T, S93T, P97L
notes: Full length IgG converted from scFv clone J703M1S3#90; Human IgG1 (hCg1,z,non-a,mut(234,235)) with human kappa; also called J703M1S3#90
B5: AE11-5 AM3 (antibody, V domains shown)
VH: B1 VH with S57T, P58A, I59N
VL: B1 VL with R28S, S32R, V55T, R92G, P97R
notes: Full length IgG converted from scFv clone J703M1S3#26; Human IgG1 (hCg1,z,non-a,mut(234,235)) with human kappa; also called J703M1S3#26
B6: AE11-5 AM8 (antibody, V domains shown)
VH: B1 VH with S57T, P104F
VL: B1 VL with R28T, V55I, R92S
notes: Full length IgG converted from scFv clone J703M1S3#38; Human IgG1 (hCg1,z,non-a,mut(234,235)) with human kappa; also called J703M1S3#38
B7: AE11-5 AM5 (antibody, V domains shown)
VH: B1 VH with A33P, S57A, P58G, P104F
VL: B1 VL with R28S, V55T, R92S, P97S
notes: Full length IgG converted from scFv clone J703M1S3#33; Human IgG1 (hCg1,z,non-a,mut(234,235)) with human kappa; also called J703M1S3#33
B8: AE11-5 AM9 (antibody, V domains shown)
VH: B1 VH with V100I
VL: B1 VL with R28S, A51V, V55L, S91R, R92S, P96S
notes: Full length IgG converted from scFv clone J703M1S3#69; Human IgG1 (hCg1,z,non-a,mut(234,235)) with human kappa; also called J703M1S3#69
B9: AE11-5 AM1 (antibody, V domains shown)
VH: B1 VH with I34T, P104H, K105R
VL: B1 VL with R28S, S31N, S32T, A51V, S91K, R92V, P96S
notes: Full length IgG converted from scFv clone J703M1S3#2; Heavy chain plasmid is pHybE-hCg1,z,non-a,mut(234,235), i.e. human IgG1 with mutations at 234 and 235; Light chain plasmid is pHybE-hCk, i.e. human kappa; also called J703M1S3#2
B10: hMAK195-AM14 (antibody, V domains shown)
VH: EVQLVESGGGLVQPGGSLRLSCAASGFTFSNYGVSWVRQAPGKGLEWVSMIWADGSTHYASSLKGRFTISRDNSKNTLYLQMNSLRAEDTAVYYCAREWQHGPVAYWGQGTLVTVSS
VL: DIQMTQSPSSLSASVGDRVTITCKASQAVSSAVAWYQQKPGKAPKLLIYWASTRHTGVPSRFSGSGSGTDFTLTISSLQPEDFATYYCQQHYSTPFTFGQGTKLEIKR
notes: Full-length IgG; also called rHC3; hMAK195 rHC3
B11: hMAK195-AM20 (antibody, V domains shown)
VH: B10 VH with S35T, L63V
VL: B10 VL with A28L
B12: hMAK195-AM26 (antibody, V domains shown)
VH: B10 VH with S61D, S62T, L63V, V104L
VL: B10 VL with K24R, A28L, S93R
B13: hMAK195-AM23 (antibody, V domains shown)
VH: B10 VH with S35T, S61D, L63V, G65S, V104L
VL: B10 VL with K24R, A28L, R54L, T56S
B14: hMAK195-AM19 (antibody, V domains shown)
VH: B10 VH with V104A
VL: B10 VL
B15: hMAK195-AM15 (antibody, V domains shown)
VH: B10 VH with S35T, A53S, H58D, L63V
VL: B10 VL
B16: hMAK195-AM11 (antibody, V domains shown)
VH: B10 VH with S35N, W52A, S56F, H58D, L63V, Q100H
VL: B10 VL
B17: hMAK195-AM13 (antibody, V domains shown)
VH: B10 VH with M50L, W52R, A53G, H58D, Q100H
VL: B10 VL
B18: hMAK195-AM21 (antibody, V domains shown)
VH: B10 VH with S35T, L63V
VL: B10 VL with K24R, A28L, T53A, S93K
B19: hMAK195-AM24 (antibody, V domains shown)
VH: B10 VH with S35E, M50G, S61D, S62T, L63V, G65S
VL: B10 VL with A28L, R54L, S93R
B20: hMAK195-AM22 (antibody, V domains shown)
VH: B10 VH with S35T, L63V
VL: B10 VL with K24R, A28L, T56S, S93R
B21: hMAK195-AM18 (antibody, V domains shown)
VH: B10 VH with S35T, L63V, V104S
VL: B10 VL
B22: hMAK199-AM5 (antibody, V domains shown)
VH: EVQLVQSGAEVKKPGASVKVSCKASGYTFRNYGIIWVRQAPGQGLEWMGWINTYTGKPTYAQKFQGRVTMTTDTSTSTAYMELSSLRSEDTAVYFCARKLFTTVDVTDNAMDYWGQGTTVTVSS
VL: DIQMTQSPSSLSASVGDRVTITCRASQDISNYLNWYQQKPGKAPKLLIYYTSRLQSGVPSRFSGSGSGTDYTLTISSLQPEDFATYFCQQGNTWPPTFGQGTKLEIK
B23: hMAK199-AM9 (antibody, V domains shown)
VH: B22 VH with R30S, I35N, K57Q, T59S, F95Y, T102K, V104E, D105A, N109Y
VL: B22 VL with D28N, S30Y, Y32V, T51A, Y71F, W94M
B24: hMAK199-AM6 (antibody, V domains shown)
VH: B22 VH with R30N, I35N, L100F, F101R, T102N, D105A, N109Y
VL: B22 VL with S30Y, N31D, Y32V, T51A, Y71F, F87Y, N92I, W94L
B25: hMAK199-AM10 (antibody, V domains shown)
VH: B22 VH with R30N, T55S, V104M
VL: B22 VL with Y32F, W94Q
B26: hMAK199-AM3 (antibody, V domains shown)
VH: B22 VH with R30N, K57V, F95Y, T102N
VL: B22 VL with S30Y, W94Q
B27: hMAK199-AM2 (antibody, V domains shown)
VH: B22 VH with R30N, F64L, T102N
VL: B22 VL with T93S
B28: hMAK199-AM7 (antibody, V domains shown)
VH: B22 VH with I35T, V104M
VL: B22 VL
B29: hMAK199-AM4 (antibody, V domains shown)
VH: B22 VH with R30N, F95Y, T102N, D105A
VL: B22 VL with S30E, Y71F, W94Q

Each binder was assayed against T1, human TNF-α (human, UniProt P01375 77-233, biotin label in the ELISA (site not stated); unlabelled in the L929 bioassay) (assay: cell-based or functional assay).
T1 sequence (P01375 77-233 R107D limits assumed): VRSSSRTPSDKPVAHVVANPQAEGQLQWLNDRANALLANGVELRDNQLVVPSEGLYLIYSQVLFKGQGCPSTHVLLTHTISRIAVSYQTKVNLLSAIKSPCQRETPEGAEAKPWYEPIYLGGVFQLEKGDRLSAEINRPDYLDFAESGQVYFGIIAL

Row | hu TNF neutralization IC50 [nM] | Binder
1 | 0.259 | B1
2 | 1.24 | B2
3 | 2.03 | B3
4 | 0.678 | B4
5 | 0.291 | B5
6 | 1.36 | B6
7 | 0.968 | B7
8 | 0.391 | B8
9 | 0.439 | B9

What follows are binders tested against Rhesus/Macaque TNF (Rhesus/Macaque, UniProt P48094 77-233) (assay: cell-based or functional assay).
Target sequence in this assay (P48094 77-233 limits assumed): as the sequence (P01375 77-233 R107D limits assumed) above, with D31R, R44T, T72N, R138L counted along it

Row | rhesus TNF neutralization IC50 [nM] | Binder
10 | 0.109 | B1
11 | 0.756 | B2
12 | 0.652 | B3
13 | 0.14 | B4
14 | 0.165 | B5
15 | 3.04 | B6
16 | 0.613 | B7
17 | 0.123 | B8
18 | 0.251 | B9

Each binder was assayed against T2, human TNF-α (human, UniProt P01375 77-233) (assay: cell-based or functional assay).
T2 sequence (P01375 77-233 R107D limits assumed): as the sequence (P01375 77-233 R107D limits assumed) above

Row | hu TNF neutralization IC50 (L929 bioassay) [nM] | Binder
19 | 0.0401 | B10

What follows are binders tested against Rhesus/Macaque TNF (rhesus/macaque, UniProt P48094 77-233) (assay: cell-based or functional assay).
Chain of Rhesus/Macaque TNF (rhesus/macaque, UniProt P48094 77-233) (P48094 77-233 limits assumed): as the sequence (P01375 77-233 R107D limits assumed) above, with D31R, R44T, T72N, R138L counted along it

Row | rhesus TNF neutralization IC50 (L929 bioassay) [nM] | Binder
20 | 0.596 | B11
21 | 0.249 | B12
22 | 2.63 | B13
23 | 1.21 | B14
24 | > 150 | B15
25 | > 25 | B16
26 | 4.61 | B10
27 | 4.64 | B17
28 | 0.09 | B18
29 | 0.557 | B19
30 | 0.271 | B20
31 | 0.441 | B21

Biological target: Rhesus/Macaque TNF (Rhesus/Macaque, UniProt P48094 77-233)
Experiment: cell-based or functional assay
Remark: another data set of the same source
Target sequence in this assay (P48094 77-233 limits assumed): as the sequence (P01375 77-233 R107D limits assumed) above, with D31R, R44T, T72N, R138L counted along it

Row | rhesus TNF neutralization IC50 [nM] | Binder
32 | 0.02 | B22
33 | 0.089 | B23
34 | 0.004 | B24
35 | 0.034 | B25
36 | 0.019 | B26
37 | 0.01 | B27
38 | 0.051 | B28
39 | 0.005 | B29

Each binder was assayed against T2, human TNF-α (assay: ELISA: IgG captured on goat anti-human IgG-Fc, biotin-human TNF titrated, streptavidin-HRP).

Row | EC50 [nM] | Binder
40 | 0.051 | B10

What follows are binders tested against T3, cynomolgus monkey TNF (cynomolgus monkey, UniProt P79337 77-233, limits assumed, biotin label in the ELISA (site not stated)) (assay: ELISA; IgG captured on goat anti-human IgG-Fc, serially diluted biotinylated cyno TNF, streptavidin-HRP).
T3 construct: also called cynoTNF; cyno TNF
Method: (§1) The following protocol is used to characterize the binding of TNF antibodies to biotinylated human or cyno TNF by enzyme-linked immunosorbent assay (ELISA). An ELISA plate was coated with 50 μl per well of goat anti human IgG-Fc at 2 μg/ml, overnight at 4° C. The plate was washed 3 times with PBS/Tween. 50 μl Mab diluted to 1 μg/ml in PBS/0.1% BSA was added to appropriate wells and incubated for 1 hour at room temperature (RT). The plate was washed 3 times with PBS/Tween. 50 μl of serial diluted biotin-human TNF was added to appropriate wells and incubated for 1 hour at RT. The plate was washed 3 times with PBS/Tween. 50 μl of streptavidin-HRP diluted 1:10,000 in PBS/0.1% BSA was added to appropriate wells and incubated for 1 hour at RT. The plate was washed 3 times with PBS/Tween. 50 μl of TMB was added to appropriate wells and the reaction was allowed to proceed for 1 minute. The reaction was stopped with 50 μl/well 2N H₂SO₄ and the absorbance read at 450 nm.

T3 sequence (P79337 77-233 limits assumed): as the sequence (P01375 77-233 R107D limits assumed) above, with D31R, L37V, R44T, T72N, R138L counted along it

Row | EC50 [nM] | Binder
41 | 750 | B1
42 | 0.28 | B4
43 | 1.55 | B5
44 | 58.6 | B6
45 | 2.2 | B7
46 | 5.29 | B8
47 | 2.14 | B9

These binders were tested against T1, human TNF-α (assay: ELISA; IgG captured on goat anti-human IgG-Fc, serially diluted biotinylated human TNF, streptavidin-HRP).
Method: as §1

Row | EC50 [nM] | Binder
48 | 18.3 | B1
49 | 522 | B2
50 | 1.37 | B3
51 | 0.98 | B4
52 | 1.57 | B5
53 | 250 | B6
54 | 17.7 | B7
55 | 16.7 | B8
56 | 1.06 | B9
